Among the data in CN109912717A are HEK-Blue EC50 and Kd values, retold here.

As usually defined, the Kd is a measure of binding affinity in units of concentration.

For assay [1], the target named is 人CD40 (HEK293A细胞表达) (human) (UniProt P25942). The experiment in a line: cell-based or functional assay.
A further assay deals with 人CD40(ECD)-his蛋白 (human) (UniProt P25942). Briefly: SPR Biacore 8K; human CD40(ECD)-his coupled to CM5, antibody as analyte, 1:1 model.
Sequence of 人CD40(ECD)-his蛋白 (human) (P25942 21-193): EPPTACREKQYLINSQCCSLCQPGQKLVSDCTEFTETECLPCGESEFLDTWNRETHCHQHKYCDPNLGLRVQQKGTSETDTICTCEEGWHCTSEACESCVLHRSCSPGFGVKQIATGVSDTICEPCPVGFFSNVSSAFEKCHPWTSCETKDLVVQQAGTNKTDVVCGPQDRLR

Sequence of 人CD40 (HEK293A细胞表达) (human) (P25942 21-277 limits assumed): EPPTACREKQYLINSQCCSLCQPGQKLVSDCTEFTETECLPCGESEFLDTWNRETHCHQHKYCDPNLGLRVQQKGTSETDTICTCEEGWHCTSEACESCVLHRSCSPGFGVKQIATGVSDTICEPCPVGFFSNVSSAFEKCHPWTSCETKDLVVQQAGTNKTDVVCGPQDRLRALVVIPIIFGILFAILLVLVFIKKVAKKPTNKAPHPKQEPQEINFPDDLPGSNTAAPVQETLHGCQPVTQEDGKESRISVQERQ

In turn, ADC1013 (antibody) registered an HEK-Blue EC50 in assay [1] of 1.03 µg/mL. The substance further came in with a Kd with 人CD40(ECD)-his蛋白 (human) of 0.029 µM.
The matching figures for RO7009789 (antibody): 0.0233 µg/mL and 0.00171 µM.
